The target of series [1] is T1, HsMGME1 WT (Homo sapiens, UniProt Q9BQP7 21-344).
T1 sequence: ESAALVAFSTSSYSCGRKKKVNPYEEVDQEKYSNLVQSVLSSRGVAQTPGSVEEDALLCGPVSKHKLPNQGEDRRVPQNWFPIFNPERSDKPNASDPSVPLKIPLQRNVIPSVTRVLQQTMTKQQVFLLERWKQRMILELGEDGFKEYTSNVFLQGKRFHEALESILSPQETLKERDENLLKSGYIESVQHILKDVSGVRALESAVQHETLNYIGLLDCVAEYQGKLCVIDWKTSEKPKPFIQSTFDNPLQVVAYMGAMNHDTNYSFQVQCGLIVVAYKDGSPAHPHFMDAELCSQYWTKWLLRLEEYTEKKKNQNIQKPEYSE
Put plainly: crystal structure (Se-SAD and native); three of four molecules contact only the 3' overhang, one contacts duplex and overhang; No solution binding assay; crystals at 18 C, protein 10 mg/ml in 20 mM Tris pH 8.0, 200 mM NaCl, 1 mM DTT, protein:DNA 1:1.2; DNA2: phosphate-citrate pH 4.2, 20% PEG300; H180Q-DNA2-Ca2+: 0.1 M CHES pH 9.5, 20% PEG 8000; DNA3: 0.1 M HEPES pH 7.5, 0.8 M NaH2PO4, 0.8 M K2HPO4. The settings on record: protein: recombinant; tags: none expected (His-SUMO removed by Ulp1); self-complementary 6-bp duplex GGATCC, 3' overhang 12 nt on both strands; 2 copies of the strand.

Another series concerns the target T2, HsMGME1 H180Q (Homo sapiens, UniProt Q9BQP7 21-344, H180Q).
T2 sequence: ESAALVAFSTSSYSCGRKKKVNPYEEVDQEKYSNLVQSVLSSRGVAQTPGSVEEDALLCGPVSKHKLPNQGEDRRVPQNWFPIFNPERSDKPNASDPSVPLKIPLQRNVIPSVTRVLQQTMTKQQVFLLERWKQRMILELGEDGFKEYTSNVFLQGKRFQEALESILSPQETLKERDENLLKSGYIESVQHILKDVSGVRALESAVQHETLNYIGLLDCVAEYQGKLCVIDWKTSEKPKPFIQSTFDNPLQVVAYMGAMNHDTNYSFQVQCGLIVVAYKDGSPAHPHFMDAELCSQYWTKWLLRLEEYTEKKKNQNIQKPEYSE
Put plainly: crystal structure; one Ca2+ at A-site; acetate; 30 mM CaCl2 in sample; No solution binding assay; crystals at 18 C, protein 10 mg/ml in 20 mM Tris pH 8.0, 200 mM NaCl, 1 mM DTT, protein:DNA 1:1.2; DNA2: phosphate-citrate pH 4.2, 20% PEG300; H180Q-DNA2-Ca2+: 0.1 M CHES pH 9.5, 20% PEG 8000; DNA3: 0.1 M HEPES pH 7.5, 0.8 M NaH2PO4, 0.8 M K2HPO4. Particulars: protein: recombinant; tags: none expected (His-SUMO removed by Ulp1); single strand.

Series [2] concerns the target T1, HsMGME1 WT. The series can be described thus: crystal structure (1.75 A); CaCl2 in the sample (10 mM), but no Ca2+ bound at the active site; No solution binding assay; crystals at 18 C, protein 10 mg/ml in 20 mM Tris pH 8.0, 200 mM NaCl, 1 mM DTT, protein:DNA 1:1.2; DNA2: phosphate-citrate pH 4.2, 20% PEG300; H180Q-DNA2-Ca2+: 0.1 M CHES pH 9.5, 20% PEG 8000; DNA3: 0.1 M HEPES pH 7.5, 0.8 M NaH2PO4, 0.8 M K2HPO4. Particulars: protein: recombinant; tags: none expected (His-SUMO removed by Ulp1); single strand.

B1: DNA3 (mixed)
DNA 1: GGATCCTTCTTCTTCTTC
DNA 2: GGATCCTTCTTCTTCTTC
On to B1, for which the binding result with HsMGME1 WT [1] is “binds”.
Take AACAACAACAAC (ssDNA) [ssDNA2]: the binding result with HsMGME1 H180Q and with HsMGME1 WT [2] was “binds” each time.

The values are drawn from publication PMC6237815, “Structural insights into DNA degradation by human mitochondrial nuclease MGME1”.
